Experiments:
[1] = target: HIV-1 envelope (Env) of strain BG505 (subtype A) (HIV-1 subtype A) (UniProt Q2N0S6)
[2] = target: HIV-1 envelope (Env) of strain DH123 (subtype B) (HIV-1 subtype B)
[3] = target: HIV-1 envelope (Env) of strain JR-CSF (subtype B) (HIV-1 subtype B) (UniProt P20871)
[4] = target: HIV-1 envelope (Env) of strain JR-FL (subtype B) (HIV-1 subtype B) (UniProt Q75760)
[5] = target: HIV-1 envelope (Env) of strain PVO.4 (subtype B) (HIV-1 subtype B)
[6] = target: HIV-1 envelope (Env) of strain REJO (subtype B) (HIV-1 subtype B)
[7] = target: HIV-1 envelope (Env) of strain SF162 (subtype B) (HIV-1 subtype B) (UniProt P19550)
[8] = target: HIV-1 envelope (Env) of strain THRO (subtype B) (HIV-1 subtype B)
[9] = target: HIV-1 envelope (Env) of strain ZM109 (subtype C) (HIV-1 subtype C)
[10] = target: HIV-1 envelope (Env) of strain ZM214 (subtype C) (HIV-1 subtype C)
[11] = target: HIV-1 envelope (Env) of strain ZM53 (subtype C) (HIV-1 subtype C)

Question: With fusion inhibitor T-20 (peptide) as the substance, how does the reduction in inhibitory activity during cell-cell transmission (293-T donor to A3.01-CCR5) against free virus infection of A3.01-CCR5 (fold change IC50) [1] read?
Answer: < 10 fold

Question: What about the reduction in inhibitory activity during cell-cell transmission (293-T donor to A3.01-CCR5) against free virus infection of A3.01-CCR5 (fold change IC50) [2] of the same substance?
Answer: < 10 fold

Question: And the reduction in inhibitory activity during cell-cell transmission (293-T donor to A3.01-CCR5) against free virus infection of A3.01-CCR5 (fold change IC50) [3]?
Answer: < 10 fold

Question: What about the reduction in inhibitory activity during cell-cell transmission (293-T donor to A3.01-CCR5) against free virus infection of A3.01-CCR5 (fold change IC50) [4] of the same substance?
Answer: < 10 fold

Question: What about the reduction in inhibitory activity during cell-cell transmission (293-T donor to A3.01-CCR5) against free virus infection of A3.01-CCR5 (fold change IC50) [5] of the same substance?
Answer: < 10 fold

Question: And the reduction in inhibitory activity during cell-cell transmission (293-T donor to A3.01-CCR5) against free virus infection of A3.01-CCR5 (fold change IC50) [6]?
Answer: < 10 fold

Question: And the reduction in inhibitory activity during cell-cell transmission (293-T donor to A3.01-CCR5) against free virus infection of A3.01-CCR5 (fold change IC50) [7]?
Answer: < 10 fold

Question: What about the median fold reduction for T-20 in cell-cell transmission (293-T donor to A3.01-CCR5) against free virus infection [8] of the same substance?
Answer: 1.6 fold

Question: What about the reduction in inhibitory activity during cell-cell transmission (293-T donor to A3.01-CCR5) against free virus infection of A3.01-CCR5 (fold change IC50) [9] of the same substance?
Answer: < 10 fold

Question: And the median fold reduction for T-20 in cell-cell transmission (293-T donor to A3.01-CCR5) against free virus infection [10]?
Answer: 5.3 fold

Question: And the reduction in inhibitory activity during cell-cell transmission (293-T donor to A3.01-CCR5) against free virus infection of A3.01-CCR5 (fold change IC50) [11]?
Answer: < 10 fold
